The nanobody polyreactivity screen of Harvey et al. (2022)

Assay: yeast display, Sf9 membrane polyspecificity reagent, FACS + sequencing; frameworks hold sequencing errors
Method in brief: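 Using colony PCR, genes from sorted yeast display clones were amplified, then sequenced on MiSeq at 2 × 250 and filtered by CDR length. The clones had been stained with 10% biotinylated, detergent-solubilized Sf9 membrane reagent for 1 hour at 4 °C and sorted by FACS into low and high (top ~1%) gates on anti-HA and streptavidin fluorescence. Polyreactivity labels come from the gate of origin.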

Row | Sequence | polyreactivity (PSR sort gate)
1 | QVQLVESGGGLVQAGGSLRLSCAASGFTFYGYGMGWYRQAPGKERELVAGISSGGGSTFYADSVKGRFTISRDNAKNTVYLQMNSLKPEDTAVYYCAALHYGGYFSYYPYYYWGQGTQVTVSS | low polyreactivity
2 | QVQLVESGGGLVQAGGSLRLSCAASGFTFYHNAMGWYRQAPGKERELVAAISGGGDSTYYADSVKGRFTISRDNAKNTVYLQMNSLKPEDTAVYYCATRRYPEVVNGEYGYWGQGTQVTVSS | low polyreactivity
3 | QVQLVESGGGLVQAGGSLRLSCAASGFTFYHYAMGWYRPAPGKERELVAAITWSGGDTYYADSEKGRFTSSRDNAKNTVYLQMNSLKPEDTAVYYCNADDPPGAPYYDSFDYRGDYWGQGTQRTVSS | low polyreactivity
4 | QVQLVESGGGLVQAGGSLRLSCAASGFTFYHYAMGWYRQAPGTERELVASITRSGASTYYADSVKGRFTSSRDNAKNTVYLQMNSLKPEDTAVYYCNKVRYTSSIWTYYYWGQGTQVTVSS | high polyreactivity
5 | QVQLVESGGGLVQAGGSLRLSCAASGFTFYKNTMGWYRQAPGKERELVAAISSSGSSTYYADSVKGRFTISRDNAKNTVYLQMNSLKPEDTAVYYCAAGRFAYHDDYWGQGTQVTVSS | high polyreactivity
6 | QVQLVESGGGLVQAGGSLRLSCAASGFTFYKNTMGWYRQAPGKVRELVAAISSSGSSTYYADSVKGRFTISRDNAKNTVYLQMNSLKPEDTAVYYCAAGRFAYHDDYWGQGTHVTVSS | high polyreactivity
7 | QVQLVESGGGLVQAGGSLRLSCAASGFTFYKYAMGGYRQEPGKERELVATITISGITNYADSVKGRFTISRDNAKNTVYLQMNSLKPEDTAVYYCATVGPWPGEYDYWGQGTQVTVSS | low polyreactivity
8 | QVQLVESGGGLVQAGGSLRLSCAASGFTFYKYTMGWYRQAPGKERELVAAISARGGSTYYADSVKGRFTISRDNAKNTVYLQMNSLKPEDTAVYYCAADYWRTYVLGYDYWGQGTQVTVSS | high polyreactivity
9 | QVQLVESGGGLVQAGGSLRLSCAASGFTFYKYVMGWYRQAPGKERELVAAITTSGGSTYYADSVKGRFTISRDNAKNTVYLQMNSLKPEDTAVYYCNARSLHTSEGDYWGQGTQVTVSS | low polyreactivity
10 | QVQLVESGGGLVQAGGSLRLSCAASGFTFYLYALGWYRQAPGKERELVAAITYSGGSTYYADSVKGRFTISRDNAKNTVYLQMNSLKPEDTAVYYCAADARGKVYWGQGTQVTVSS | high polyreactivity
11 | QVQLVESGGGLVQAGGSLRLSCAASGFTFYLYAMGWYRQAPGKEREFVASISYRGTSTYYADSVKGRCTISRDNAKNTVYLQMNSLKPEDTAFYYCAARPSYYRTGYGYWGQGTQVTVSS | high polyreactivity
12 | QVQLVESGGGLVQAGGSLRLSCAASGFTFYLYSMGWYRQAPGKERELVATITSDGGTNYADSVKGRFSISRDNAKNTVYLQMNSLTPEDTAVYYCNAASRRGSRKQAKYDYWGQGTQVTVSA | low polyreactivity
13 | QVQLVESGGGLVQAGGSLRLSCAASGFTFYPNTMGWYRQAPGKERELVAAISSSGGRTYYSDSVKGRFTISRDNAKNTVYLQMNSLKPEDTAVYYCNAAKWLTSGGLDYWGIGTQVTVSS | high polyreactivity
14 | QVQLVESGGGLVQAGGSLRLSCAASGFTFYPYAMGWYRQAPGKERELVAAIRISGGSTYYADSVKGRFTISRDTAKNTVYLQMNSLKPEDTAVYYCAAKYPYYSSYAYGYWGQGTQVTVSS | high polyreactivity
15 | QVQLVESGGGLVQAGGSLRLSCAASGFTFYPYAMGWYRQAPGKERELVAGITRGGSTNYADSVKGRFTISRDNAKNTVYLQMNSLKPEDTAVYYCAAKYGPYFRRLDYWGQGTQVTVSS | high polyreactivity
16 | QVQLVESGGGLVQAGGSLRLSCAASGFTFYPYAMGWYRQAPGKERELVASISWSGGSTYYADSVKGRFTISRDNAKNTVYFQMNSLKPEDTAVYYCNAEYWLPYYPDYDFWGQGTQVTVSS | low polyreactivity
17 | QVQLVESGGGLVQAGGSLRLSCAASGFTFYPYAMGWYRQAPGKERELVATISSGGTTNYADSVKGRFTISRDNAKNTVYLQMNSLKPEDTAVYYCAADYIRLFGPFDYWGQGTQVTVSS | low polyreactivity
18 | QVQLVESGGGLVQAGGSLRLSCAASGFTFYPYARGWYRQAPGKERELVAAISNGDSTHYADSVKGRFTISRDNAKNTVYLQMNSLKPQDTAVYYCNAYTRYPFYFVTSKYDYWGQGNQVTVSS | low polyreactivity
19 | QVQLVESGGGLVQAGGSLRLSCAASGFTFYPYTMGWYRQAPGKERELVAAISSSGGSTYYADSVKGRFTISRDNAMNTVYLQMNSLKPEDTAVYYCATRSWGPYYYGYNHWGQGSQVTVSS | high polyreactivity
20 | QVQLVESGGGLVQAGGSLRLSCAASGFTFYQYAMGWYRQAPGKERELVAAISSSGTSTYYADSVKGRFTISRDNAKNTVYLQMNSLKPEDTAVYYCAARRYKLFYWGQGTQVTVSS | low polyreactivity
21 | QVQLVESGGGLVQAGGSLRLSCAASGFTFYRNAMGWYRQAPGKEWELVAGITRSGGSTYYADSVKGRFTISRDNAKNTVYLQMNSLKPEDTAVYYCNKAYGGDKYSGTYDYWGQGTQVTVSS | high polyreactivity
22 | QVQLVESGGGLVQAGGSLRLSCAASGFTFYRNAMGWYRQAPRKERDLVAAISDSGGRTYYADSVKGRFTISRDNAMNTVYLQMNSLIPEDTAVYYCAADTVIWWVEYEYWGQGTQVTVSS | high polyreactivity

Row | Sequence | polyreactivity (PSR sort gate)
23 | QVQLVESGGGLVQAGGSLRLSCAASGFTFYRYAMGWYRQAPGKERELVAAITGGGSTYYADSVKGRFTISRDNAKNTVYLQMNSLKPEDTAVYYCNADIRAYTVLTGGYIYDYWGQGTQVTVSS | high polyreactivity
24 | QVQLVESGGGLVQAGGSLRLSCAASGFTFYRYAMGWYRQAPGKERELVAAITKSSGRTYYADSVKGRFTISRDNAQITVYLQINSLKPEDTAVYYCNAYYVALPPNMDYWGQGTQVTVSS | high polyreactivity
25 | QVQLVESGGGLVQAGGSLRLSCAASGFTFYRYAMGWYRQAPGKERELVAAITWSGGSTYYADSVKGRFTISRDNAKNTVYLQMNSLKPVDTAVYYCAADIYDGGFDYWGQGTQVTVSS | low polyreactivity
26 | QVQLVESGGGLVQAGGSLRLSCAASGFTFYRYAMGWYRQAPGKERELVASIRWGGGSTYYADSVKGRFTISRDNAKNTFYLEMNSLKPEDTAVYYCAAYFGYTVGRYNYWGQGTQVTVSS | high polyreactivity
27 | QVQLVESGGGLVQAGGSLRLSCAASGFTFYRYAMGWYRQAPGKERELVASISWRGGNTYYADSVKGRFTISRDNAKNTVYLQMNSLKPEDTAVYYCAAGRSRIPSLLDYWGQGTQVTVSS | high polyreactivity
28 | QVQLVESGGGLVQAGGSLRLSCAASGFTFYRYTMGWYIQAPGKERELVAAISARGVSTYYADSVKGRFTISRDIAKNTVYLQMNSLKPEDTAVYYCYVSRYDSWGQGTQVTVSS | high polyreactivity
29 | QVQLVESGGGLVQAGGSLRLSCAASGFTFYSNAMGWYRQAPGKERELVAAITGRGGRTYYADSVKGRFTISRDNAKNTVYLQMNSLKPEDTAVYYCAAVYHVSTWGGRYYFRQGYDYWGQGTQVTVSS | high polyreactivity
30 | QVQLVESGGGLVQAGGSLRLSCAASGFTFYSNAMGWYRQAPGKERELVAAITSGGNTNYADSVKGRFTISRDNAKNTVYLQMNSLKPEDTAVYYCAAYPPSQRAEYDFWGQGTQVTVSS | low polyreactivity
31 | QVQLVESGGGLVQAGGSLRLSCAASGFTFYSYAMGWYRQAPGKERELVAAISRSGTTTYYADSVKGRFTISRDNAKNTVYLQMNSLKPEDTAVYYCAARTTSSSLTPSLYYWGQGTQVTVSS | high polyreactivity
32 | QVQLVESGGGLVQAGGSLRLSCAASGFTFYSYAMGWYRQAPGKERELVAAITKRGGSTSYADSVKGRFTISRDNAKNTVYLQMNSLKPEDTAVYYCNRRATKAQYGDEVDYWGQGTQVTVSS | high polyreactivity
33 | QVQLVESGGGLVQAGGSLRLSCAASGFTFYSYAMGWYRQAPGKERELVAVISKRGGSTRYADSVKGRFTISRDNAKNTVYLQMNSLKPEDTAVYYCNADQHSITYNEFDYWGQGTQVTVSS | low polyreactivity
34 | QVQLVESGGGLVQAGGSLRLSCAASGFTFYSYDMGWYRQAPGKERELVAVITERGSSTYYADSVKGRFTISRDNAKNTVYLQMNSLKPEDTAVYYCAAYSEYYGVYYWGQGTQVTVSS | low polyreactivity
35 | QVQLVESGGGLVQAGGSLRLSCAASGFTFYTKAMGWYRQAPGKERELVAGINSGSSTYYADSVKGRFTISRDNAKNTVYLQMNSLKPEDTAVYYCAARRSRYILRGFGYWGQGTQVTVSS | high polyreactivity
36 | QVQLVESGGGLVQAGGSLRLSCAASGFTFYTNAMGWYRQAPGKERDMVAVITSGGNTYYADSVKGRFTISRDNAKNTVYLQMNSLKPEDTAVYYFAAIPKRPIRFDYWGQGTQVTVSS | high polyreactivity
37 | QVQLVESGGGLVQAGGSLRLSCAASGFTFYTNAMGWYRQATGKERELVAVITSGGNTYYADSVKGRFTISRDNAKYTVYLQMNSLKPEDTAVYYCAAKPKRPIRFDYWGQGTQVTVSS | high polyreactivity
38 | QVQLVESGGGLVQAGGSLRLSCAASGFTFYTYAMGWYRQAPGKERELVAAITGSGGRTYYADSVKGRFTISRDNAKNTVYLQMNSLKPEDTAVYYCAALYVYRPRTPYGYWGQGTQVTVSS | high polyreactivity
39 | QVQLVESGGGLVQAGGSLRLSCAASGFTFYTYAMGWYRQAPGKERELVAAITSSGGSTYYADSVKGRFTISRDHAKNTVYLQMNSLKPEDTAVYYCKAVSYYLGDDYWGPGTQVTVSS | high polyreactivity
40 | QVQLVESGGGLVQAGGSLRLSCAASGFTFYVNAMGWYRQAPGKEREFVAAISSSGASTRYADSVKGRFTISRDNAKNTVYLQMNSLKPEDTAVYYCAADAPAWILEAYGYWGQGTQVTVSS | low polyreactivity
41 | QVQLVESGGGLVQAGGSLRLSCAASGFTFYVNAMGWYRQAPGKERELVAAITDDGDSTYYADSVKGRFTISRDNAKNTVYLQMNSLKPEDTAVYYCNTVYGPDLYGTEYDYWGQGTQVTVSS | low polyreactivity
42 | QVQLVESGGGLVQAGGSLRLSCAASGFTFYVYTMGWYRQAPGKERELVAAITWSGGSTYYADSVKGRFTISRDNAKNNVYLQMNSLKPEDTAVYYCNRVGYWVGHDSWGQGTQVTVSS | high polyreactivity
43 | QVQLVESGGGLVQAGGSLRLSCAASGFTFYWYAMGWYRQAPGKERELVAAISNRGGSTYYADSVKGRFTISRDNAKNTVYLQMNSLKPEDTAVYYCATESRGVGAARYDYWGQGTQVTVSS | high polyreactivity
